This is an account of results in PMC2990918.

The experiment addresses normal undigested taxol microtubules (αβ-MTs) of porcine brain tubulin (porcine (brain)) (UniProt P02550). The experiment can be described thus: co-sedimentation.

In general, Kd refers to the equilibrium constant for the complex coming apart. Low readings indicate a tighter complex, high ones a looser complex. Consider “CLIP-170 MT-binding domain fragment H1^1–350 (from UniProt P30622 1-350) (domain or fragment)”, for which the Kd was found to be 510 nM and the percent dissociated at 100 mM NaCl stood at 30%.
